According to patent publication US20160333098A1 (published 2016):

Legend:
[1] = molecular target: cell lines MCF-7, DU-145 and ME-180 carrying both IGF-1R and EGP-1; assay: flow cytometry (FACScan), MCF-7 cells; structural control
[2] = molecular target: EGP-1 expressed on cancer cell lines (MCF-7, DU-145, ME-180) (UniProt P09758); assay: flow cytometry (FACScan), ME-180 cells
[3] = molecular target: EGP-1 expressed on cancer cell lines (MCF-7, DU-145, ME-180) (UniProt P09758); assay: flow cytometry (FACScan), MCF-7 cells
[4] = molecular target: EGP-1 expressed on cancer cell lines (MCF-7, DU-145, ME-180) (UniProt P09758); assay: flow cytometry (FACScan), DU145 cells
[5] = molecular target: IGF-1R expressed on cancer cell lines (MCF-7L, MCF-7, CaPan1, DU-145, ME-180, Hep G2, HT-29, LNCaP) (human) (UniProt P08069); assay: 125I-IGF-1 binding to MCF-7L cells in the presence of 1000 ng/mL antibody
[6] = molecular target: IGF-1R expressed on cancer cell lines (MCF-7L, MCF-7, CaPan1, DU-145, ME-180, Hep G2, HT-29, LNCaP) (human) (UniProt P08069); assay: 125I-IGF-1 binding to MCF-7L cells in the presence of 10 ng/mL antibody
[7] = molecular target: recombinant human IGF-1R (rhIGF-1R), immobilized on plates or polystyrene beads (human) (UniProt P08069); assay: labeled antibody on rhIGF-1R-coated beads; competitor: unlabeled MAB391
[8] = molecular target: IGF-1R expressed on cancer cell lines (MCF-7L, MCF-7, CaPan1, DU-145, ME-180, Hep G2, HT-29, LNCaP) (human) (UniProt P08069); assay: 125I-IGF-1 binding to MCF-7L cells, 0 ng/mL antibody (reference)
[9] = molecular target: IGF-1R expressed on cancer cell lines (MCF-7L, MCF-7, CaPan1, DU-145, ME-180, Hep G2, HT-29, LNCaP) (human) (UniProt P08069); assay: 125I-IGF-1 binding to MCF-7L cells in the presence of 100 ng/mL antibody
[10] = molecular target: recombinant human IGF-1R (rhIGF-1R), immobilized on plates or polystyrene beads (human) (UniProt P08069); assay: labeled antibody on rhIGF-1R-coated beads; competitor: unlabeled R1
[11] = molecular target: recombinant human IGF-1R (rhIGF-1R), immobilized on plates or polystyrene beads (human) (UniProt P08069); assay: labeled antibody on rhIGF-1R-coated beads; competitor: unlabeled 1-2
[12] = molecular target: recombinant human IGF-1R (rhIGF-1R), immobilized on plates or polystyrene beads (human) (UniProt P08069); assay: labeled antibody on rhIGF-1R-coated beads; competitor: unlabeled cR1
[13] = molecular target: recombinant human IGF-1R (rhIGF-1R), immobilized on plates or polystyrene beads (human) (UniProt P08069); assay: labeled antibody on rhIGF-1R-coated beads; competitor: unlabeled 2C8
[14] = molecular target: recombinant human IGF-1R (rhIGF-1R), immobilized on plates or polystyrene beads (human) (UniProt P08069); assay: labeled antibody on rhIGF-1R-coated beads; competitor: unlabeled hR1
[15] = molecular target: recombinant human IGF-1R (rhIGF-1R), immobilized on plates or polystyrene beads (human) (UniProt P08069); assay: labeled antibody on rhIGF-1R-coated beads; competitor: unlabeled 17-69
[16] = molecular target: recombinant human IGF-1R (rhIGF-1R), immobilized on plates or polystyrene beads (human) (UniProt P08069); assay: labeled antibody on rhIGF-1R-coated beads; competitor: unlabeled 3B7
[17] = molecular target: recombinant human IGF-1R (rhIGF-1R), immobilized on plates or polystyrene beads (human) (UniProt P08069); assay: labeled antibody on rhIGF-1R-coated beads; competitor: unlabeled 24-60
[18] = molecular target: recombinant human IGF-1R (rhIGF-1R), immobilized on plates or polystyrene beads (human) (UniProt P08069); assay: labeled antibody on rhIGF-1R-coated beads; competitor: unlabeled αIR-3
[19] = molecular target: recombinant human IGF-1R (rhIGF-1R), immobilized on plates or polystyrene beads (human) (UniProt P08069); assay: labeled antibody on rhIGF-1R-coated beads; competitor: unlabeled 24-57
[20] = molecular target: recombinant human IGF-1R (rhIGF-1R), immobilized on plates or polystyrene beads (human) (UniProt P08069); assay: labeled antibody on rhIGF-1R-coated beads; competitor: unlabeled 24-31
[21] = molecular target: recombinant human IGF-1R (rhIGF-1R), immobilized on plates or polystyrene beads (human) (UniProt P08069); assay: labeled antibody on rhIGF-1R-coated beads; competitor: unlabeled 1H7
[22] = molecular target: cell lines MCF-7, DU-145 and ME-180 carrying both IGF-1R and EGP-1; assay: flow cytometry (FACScan), MCF-7 cells; control
[23] = molecular target: T1, recombinant human IGF-1R (rhIGF-1R), immobilized on plates or polystyrene beads (human, UniProt P08069 31-935); assay: labeled antibody on rhIGF-1R-coated beads; competitor: unlabeled hR1
T1 construct: also called immobilized recombinant human IGF-1R; IGF-1R-coated beads

[24] = molecular target: T1, recombinant human IGF-1R (rhIGF-1R), …; assay: labeled antibody on rhIGF-1R-coated beads; competitor: unlabeled 2C8
[25] = molecular target: T1, recombinant human IGF-1R (rhIGF-1R), …; assay: labeled antibody on rhIGF-1R-coated beads; competitor: unlabeled 24-57
[26] = molecular target: T1, recombinant human IGF-1R (rhIGF-1R), …; assay: labeled antibody on rhIGF-1R-coated beads; competitor: unlabeled MAB391
[27] = molecular target: T1, recombinant human IGF-1R (rhIGF-1R), …; assay: labeled antibody on rhIGF-1R-coated beads; competitor: unlabeled 17-69
[28] = molecular target: T1, recombinant human IGF-1R (rhIGF-1R), …; assay: labeled antibody on rhIGF-1R-coated beads; competitor: unlabeled αIR-3
[29] = molecular target: T1, recombinant human IGF-1R (rhIGF-1R), …; assay: labeled antibody on rhIGF-1R-coated beads; competitor: unlabeled 1H7
[30] = molecular target: T1, recombinant human IGF-1R (rhIGF-1R), …; assay: labeled antibody on rhIGF-1R-coated beads; competitor: unlabeled 24-60
[31] = molecular target: T1, recombinant human IGF-1R (rhIGF-1R), …; assay: labeled antibody on rhIGF-1R-coated beads; competitor: unlabeled 24-31
[32] = molecular target: T1, recombinant human IGF-1R (rhIGF-1R), …; assay: labeled antibody on rhIGF-1R-coated beads; competitor: unlabeled R1
[33] = molecular target: T1, recombinant human IGF-1R (rhIGF-1R), …; assay: labeled antibody on rhIGF-1R-coated beads; competitor: unlabeled 1-2
[34] = molecular target: T1, recombinant human IGF-1R (rhIGF-1R), …; assay: labeled antibody on rhIGF-1R-coated beads; competitor: unlabeled cR1
[35] = molecular target: T1, recombinant human IGF-1R (rhIGF-1R), …; assay: labeled antibody on rhIGF-1R-coated beads; competitor: unlabeled 3B7
[36] = molecular target: T2, recombinant human insulin receptor (rhIR), immobilized (human, UniProt P06213-2 28-944, limits assumed); assay: ELISA on immobilized receptor
[37] = molecular target: T1, recombinant human IGF-1R (rhIGF-1R), …; assay: ELISA on immobilized rhIGF-1R (cR1 of clones 709.2D2 and 710.2G2, the same value for each)
[38] = molecular target: T2, recombinant human insulin receptor …; assay: hybridoma screening; method not described

Chain of EGP-1 expressed on cancer cell lines (MCF-7, DU-145, ME-180) (P09758 27-323): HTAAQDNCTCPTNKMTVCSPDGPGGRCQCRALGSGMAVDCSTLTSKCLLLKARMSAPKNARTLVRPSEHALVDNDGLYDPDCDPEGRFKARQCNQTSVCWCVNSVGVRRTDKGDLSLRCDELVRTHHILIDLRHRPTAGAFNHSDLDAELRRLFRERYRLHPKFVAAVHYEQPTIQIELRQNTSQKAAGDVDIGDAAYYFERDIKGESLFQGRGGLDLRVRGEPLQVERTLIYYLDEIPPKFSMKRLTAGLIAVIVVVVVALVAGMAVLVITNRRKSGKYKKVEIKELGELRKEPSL
T2 sequence (P06213 other isoform, or with tags, fused parts or gaps limits assumed): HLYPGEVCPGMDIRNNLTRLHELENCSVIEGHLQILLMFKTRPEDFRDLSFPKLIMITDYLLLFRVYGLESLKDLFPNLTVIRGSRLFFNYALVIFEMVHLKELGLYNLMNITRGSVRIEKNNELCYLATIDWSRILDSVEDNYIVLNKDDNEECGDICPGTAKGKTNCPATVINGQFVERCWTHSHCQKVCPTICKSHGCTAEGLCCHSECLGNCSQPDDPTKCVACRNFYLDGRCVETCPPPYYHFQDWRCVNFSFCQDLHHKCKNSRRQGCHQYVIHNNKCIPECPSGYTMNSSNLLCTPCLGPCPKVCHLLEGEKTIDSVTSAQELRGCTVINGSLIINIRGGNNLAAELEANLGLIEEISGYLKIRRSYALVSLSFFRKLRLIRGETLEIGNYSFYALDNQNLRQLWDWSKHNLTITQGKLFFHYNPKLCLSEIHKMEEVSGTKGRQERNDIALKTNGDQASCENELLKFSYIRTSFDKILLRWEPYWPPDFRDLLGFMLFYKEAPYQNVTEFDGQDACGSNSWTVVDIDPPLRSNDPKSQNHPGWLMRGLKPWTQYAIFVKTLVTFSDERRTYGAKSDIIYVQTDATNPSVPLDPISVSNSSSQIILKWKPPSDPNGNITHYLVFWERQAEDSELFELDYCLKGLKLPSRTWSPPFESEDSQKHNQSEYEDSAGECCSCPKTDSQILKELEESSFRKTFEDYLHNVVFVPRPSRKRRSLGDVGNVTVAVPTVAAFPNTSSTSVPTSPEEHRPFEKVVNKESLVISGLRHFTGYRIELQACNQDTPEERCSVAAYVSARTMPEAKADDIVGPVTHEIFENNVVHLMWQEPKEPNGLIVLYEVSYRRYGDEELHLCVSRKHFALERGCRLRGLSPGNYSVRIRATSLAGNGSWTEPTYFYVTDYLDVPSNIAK

| Molecule | % binding [7] | % binding [10] | % binding [23] | % binding [24] | % binding [25] | % binding [26] | % binding [27] | % binding [28] | % binding [29] | % binding [30] | % binding [31] | % binding [32] | % binding [33] | % binding [34] | % binding [35] | other results |
| --- | --- | --- | --- | --- | --- | --- | --- | --- | --- | --- | --- | --- | --- | --- | --- | --- |
| DNL construct 22-20 (hLL2 IgG-AD2 with hA20 Fab-DDD2) (bispecific antibody) |  |  |  |  |  |  |  |  |  |  |  |  |  |  |  | % Positive [1]: 3.1%; MFI [1]: 2.11 |
| Hex-hRS7, monospecific hexavalent DNL construct (hRS7 IgG-AD2 with hRS7 Fab-DDD2) (antibody) |  |  |  |  |  |  |  |  |  |  |  |  |  |  |  | % Positive [2]: 100%; MFI [2]: 59.6; % Positive [3]: 99.9%; MFI [3]: 35.7; % Positive [4]: 93.7%; MFI [4]: 17 |
| MAB391, commercially available mouse anti-IGF-1R monoclonal antibody | 0% | 40% |  |  |  |  |  |  |  |  |  |  |  |  |  | % binding of 125I-IGF-1 [5]: 38%; % binding of 125I-IGF-1 [6]: 95%; % binding of 125I-IGF-1 [8]: 100%; % binding of 125I-IGF-1 [9]: 54% |
| anti-IGF-1R antibody αIR-3 | 0% | 86% |  |  |  |  |  |  |  |  |  |  |  |  |  | % binding [11]: 95%; % binding [12]: 97%; % binding [13]: 97%; % binding [14]: 107%; % binding [15]: 89%; % binding [16]: 76%; % binding [17]: 0%; % binding [18]: 0%; % binding [19]: 87%; % binding [20]: 52%; % binding [21]: 115% |
| hRS7, humanized anti-EGP-1 antibody |  |  |  |  |  |  |  |  |  |  |  |  |  |  |  | % Positive [2]: 100%; MFI [2]: 35.5; % Positive [3]: 99.2%; MFI [3]: 21.4; % Positive [4]: 82.8%; MFI [4]: 10.6 |
| human IgG (control in Table 5) (antibody) |  |  |  |  |  |  |  |  |  |  |  |  |  |  |  | % Positive [22]: 2.34%; MFI [22]: 1.84 |
| mouse anti-IGF-1R antibody R1 (ML04R1) (antibody, V domains shown, Used unlabeled or tagged with a fluorescent probe (PE); also called murine R1; clone C-11) VH: EVKLVESGGGLVQPGGSLKLSCATSGFTFSDYYMYWVRQTPEKRLEWVAYITNYGGSTYYPDTVKGRFTISRDNAKNTLYLQMSRLRSEDTAMYFCARQSNYDYDGWFAYWGQGTTVTVSS VL: DIVMTQSHKFMSTSVGDRVSITCKASQEVGTAVAWYQQKPGQSPKLLIYWASTRHTGVPDRFTGSGSGTDFTLTISNVQSEDLADYFCQQYSNYPLTFGAGAKLELKR |  |  | 0% | 100% | 100% | 100% | 100% | 143% | 150% | 43% | 100% | 0% | 100% | 0% | 117% | binding result [38]: no binding |

Second part, led by results:

| % binding [7] | % binding [10] | % binding [23] | % binding [24] | % binding [25] | % binding [26] | % binding [27] | % binding [28] | % binding [29] | % binding [30] | % binding [31] | % binding [32] | % binding [33] | % binding [34] | % binding [35] | Molecule | other results |
| --- | --- | --- | --- | --- | --- | --- | --- | --- | --- | --- | --- | --- | --- | --- | --- | --- |
| 0% | 0% |  |  |  |  |  |  |  |  |  |  |  |  |  | anti-IGF-1R antibody 24-60 | % binding [11]: 100%; % binding [12]: 0%; % binding [13]: 88%; % binding [14]: 0%; % binding [15]: 82%; % binding [16]: 79%; % binding [17]: 0%; % binding [18]: 21%; % binding [19]: 88%; % binding [20]: 18%; % binding [21]: 100% |
|  |  | 0% | 100% | 100% | 121% | 100% | 136% | 131% | 71% | 100% | 0% | 100% | 0% | 100% | humanized R1 (hR1) (antibody, V domains shown, also called hR1 IgG; production clone 711.3C11) VH: QVQLQESGGGVVQPGRSLRLSCSASGFTFSDYYMYWVRQAPGKGLEWVAYITNYGGSTYYPDTVKGRFTISRDNAKNTLFLQMDSLRPEDTGVYFCARQSNYDYDGWFAYWGQGTPVTVSS VL: DIQLTQSPSSLSASVGDRVTITCKASQEVGTAVAWYQQKPGKAPKLLIYWASTRHTGVPSRFSGSGSGTDFTFTISSLQPEDIATYFCQQYSNYPLTFGQGTKVEIKR |  |
|  |  | 0% | 100% | 100% | 108% | 100% | 128% | 125% | 40% | 100% | 0% | 100% | 0% | 106% | chimeric R1 (cR1) (antibody, V domains shown, R1 variable domains on human constant regions of the pdHL2 vector (cR1pdHL2); also called mouse-human chimeric mAb of R1; clones 709.2D2 and 710.2G2) VH: EVKLVESGGGLVQPGGSLKLSCATSGFTFSDYYMYWVRQTPEKRLEWVAYITNYGGSTYYPDTVKGRFTISRDNAKNTLYLQMSRLRSEDTAMYFCARQSNYDYDGWFAYWGQGTTVTVSS VL: DIVMTQSHKFMSTSVGDRVSITCKASQEVGTAVAWYQQKPGQSPKLLIYWASTRHTGVPDRFTGSGSGTDFTLTISNVQSEDLADYFCQQYSNYPLTFGAGAKLELKR | binding result [36]: no binding; Kd [37]: ~100 pM |
